The text below walks through data of patent US20220220508, “ENGINEERED CASX SYSTEMS” (Scribe Therapeutics Inc., published 2022).

The target of this series is CasX2 (StX2, wild-type reference CasX) (Planctomycetes). The series is described as follows: cleavage_in_vitro; kcleave; TTC PAM. As to conditions: tags: N-terminal SV40 NLS, C-terminal NLS, TEV site and twin Strep tag; label: fluorescent. On the procedure:
In vitro cleavage assays were performed essentially as described in Example 19, using CasX 2 (SED ID NO:2), CasX 119, and CasX 438 complexed with single guide 174 with spacer 7.37 targeted against B2M. Fluorescently labeled dsDNA targets that would be complementary with a 7.37 spacer and either a ITC, CTC, CTC, or ATC PAM were used (The DNA sequences used to generate each dsDNA substrate are shown in Table 29. The PAM sequences for each are bolded. TS—target strand. NTS—Non-target strand). Target DNA was incubated with a 20-fold excess of the indicated RNP and the amount of cleaved target was determined at the indicated. time points. The monophasic fit of the combined replicates is shown. During the assay, samples were taken at 0.25, 0.5, 1, 2, 5, 10, 30, and 60 minutes. Gels were imaged with an Amersham Typhoon and quantified using the IQTL 8,2 software. Apparent first-order rate constants for non-target strand cleavage (kcleave) were determined for each Casx:sgRNA complex on each target. Rate constants for targets with non-TTC PAM were compared to the TIC PAM target to determine whether the relative preference for each PAM was altered for a given CasX variant. The results are shown in FIG. 73 (the monophasic fit of the combined replicates is shown) and Table 30. […]

B1: sgRNA 174.7.37 ; 7.37 TTC PAM target (ssRNA ; dsDNA)
RNA: ACUGGCGCUUUUAUCUGAUUACUUUGAGAGCCAUCACCAGCGACUAUGUCGUAGUGGGUAAAGCUCCCUCUUCGGAGGGAGCAUCAAAGGGCCGAGAUGUCUCGCUCCG
DNA 1: TGAAGCTGACAGCATTCGGGCCGAGATGTCTCGCTCCGTGGCCTTAGCTGTGCTCGCGCT
DNA 2: AGCGCGAGCACAGCTAAGGCCACGGAGCGAGACATCTCGGCCCGAATGCTGTCAGCTTCA
Molecule B1 registered an activity of 0.267 min⁻¹.
